Test results: article PMC3828642, “1-Aminocyclopropane-1-carboxylic acid oxidase reaction mechanism and putative post-translational activities of the ACCO protein” (AoB Plants, 2013)
Several values for one entry are separate records, joined by “and”; a condition that tells them apart may be missing. Equal values may be shown once.

Target: 1-Aminocyclopropane-1-carboxylic acid (ACC) oxidase ACCO1 from apple (Malus domestica), His-Tag fusion protein (apple (Malus domestica))
Assay: SEC; Sephadex G-200 column chromatography; activity of the monomer, dimer and tetramer forms; data not shown

- stoichiometry N: 2 and 4
Substance: 1-Aminocyclopropane-1-carboxylic acid (ACC) oxidase ACCO1 from apple (Malus domestica), His-Tag fusion protein (enzyme)
